Reference: the nanobody polyreactivity screen of Harvey et al. (2022)

Assay: yeast display, Sf9 membrane polyspecificity reagent, FACS + sequencing; frameworks hold sequencing errors
Summary of the method: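 A nanobody's polyreactivity label depends on the gate it was sorted from. Yeast display cells were stained with 10% biotinylated, detergent-solubilized Sf9 membrane reagent for 1 hour at 4 °C, enriched on streptavidin microbeads and sorted by FACS. The low and high (top ~1%) gates were set on anti-HA fluorescence for expression and streptavidin fluorescence for reagent binding.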

Sequence | polyreactivity (PSR sort gate)
QVQLVESGGGLVQAGGSLRLSCAASGSTFYDYAMGWYRQAPGKERVLVAAISTSGGSTYADSVYGRFTISRDNAKNTVYLQMNSLKPEDTAVYYCNADDPGYAVPWYWFKYDYWGQGTQVTVSS | low polyreactivity
QVQLVESGGGLVQAGGSLRLSCAASGFIFFEYAMGWYRQAPGKERELVAAISWSDDTTYYADSVKGRFTISRDNAKNTVYLQMNSLNPEDTAVYYCNVRYWGFYDYDYWGQGSQVTVSS | low polyreactivity
QVQLVESGGGLVQAGGSLRLSCAASGFIFDSYAMGWYRQAPGKERELVAAITTSGGRSYYADSVKGRFTISRDNAKNTVYLQMNSLKPEDTAVYYCAAKYTARWGFDYWGQGTQVTVSS | high polyreactivity
QVQLVESGGRLVQAGGSLRLSCAASGFTFSEYAMRWYRPAPGKVRELVAAINDGGGSTYYADSVKGRFTISRDNAKNTVYLQMNSLKPEDTAVYYCAVEQRLRYGYDYWGQGTQVTVSS | high polyreactivity
QVQLVESGGGLVQAGGSLRLSSAASGITFRGSAMGWYRQAPGKERELVASITNTDSTYYADSVKGRFTISRDNAKHTVYLQMNSLKPEDTAVYYCAARRGRKYGYWGQGTQVTVSS | high polyreactivity
QVQLVESGGGLVQAGGSLRLSCPASGSIFDYYAMGWYRQPPGKEREMVAAINISGGDTYYADSVKGRFTISRDNAKNTVYLQMNSLKPEDTAVYYCAADWVTWWFSRVGWDYGYWGQGTQVTVSS | low polyreactivity
QVQLVESGGGLVQAGGSLRLSCAASGFTFKYYDMGWYRQAPGKERELVAAIDTSGGNTYYADSVKGRFTISRDYAKNTVYLQMNSLKPEDTAVYYCAATVPYYHDDYWGQGTQVTVSS | low polyreactivity
QDQLVEERGGLVQAGGSLRLSCAASGITFSTNAMGWYRQAPGKERELVAAITSVTSTYYADSVKGRFTISRDYAKNSVYLQMNSLKTEDTAVLYCAASLSRWPYFYEYNYWGQGTQVTVSS | low polyreactivity
QVHLVESGGGLVQAGGSLRLSCADSGFTFRRYTMGWYRQAPGKERELVAVISASGGSTYYADSVKGRFTISRDNAKNTVYLQMNSLKPEDTAVYYCNTRAVVIGGDYWGQGTQVTVSS | high polyreactivity
QVQLVESGGGLVQGGGSLRLSCAASGGTIGRNAMGWYRQAPGKERELVANITRRGGSTYYADSVKGRFTISRDNAKNTVYLQMNSLKAEDTAVYYCAARDVYRGGLFDYWGQGTQVSVSS | high polyreactivity
QVQLVESGGGLVQAGGSLRLSCAASGFTFRGYAMGWYRQAPGKERELVAVINTDGSTNYADSVKGRFTISRDNAKNTVYLQMNSLKPEDTAVYYCNAVRSSIGSDNDYWGQGTQVTVSS | low polyreactivity
QVQLVESGGGLVQARGSLRLSCAASGRTLYDYAMGWYRPAPGKERELVAAISSSGATTYYADSVKGRFTISRDHAKNTVYLQMNSLKPEDTAVYYCAAESVHQAWSGYYYWGQGTQVTVSS | high polyreactivity
QVQLVESGGGLVQAGGSLRLSCAGSGSIFPFYVMGWYRQAPGKEREFVATISSRGGSTYYADSVKGRFTISRDNAKNTVYLQMNSLKPEDTAVYYCAAGWYRTDWGQRLHTYYYWGQGTQVTVSS | high polyreactivity
QVQLVESGGGLVQAGGSLRLTCAASGNTFYGYAMGWYRQAPGKERELVASITLSGDSTYYADSVKGRFTISRDNAKNTVYLQMNSLKPEDTAVYYCAGVYTYPLGYFHYTYDYWGQVTQVTVSS | low polyreactivity
QVQLVESGVGLVQAGGSLRLSCAASGSILSKNAMAWYREAPGNERELVAAITWSGGSTYYADSVKGRFTISRDNEKNTVYLQMNSLKPEDTAVSYCAADLDWSPHFGLPYDYWGQGTQVTVSS | low polyreactivity
QVQLVESGGGLVQAGGSLRLSCADSGSTFRYYVMGWYRQAPGKERELVARITSAASTNYADSVKGRFTISRDNAKNTVYLQMNSLKPEDTAVYYCAARKYGSRYRLKYDYWGQGTQVTVSS | high polyreactivity
QVQLVESGGGLVQAGGSLRLSCAASGFIFEGYAMGWYRQAPGKERELVAAINWSGTTTYYADSVKGRFTISRDNAKNTVYLQMNSLKPEDTAVYYCNARYYVLRGYDYWGQGTQVTVSS | low polyreactivity
QVQLVESGGGLVQAGGSLRLSCAASGIILYYNALGWYRQAPGKERELLAAITTSGVSTYDADSVKGRFTISRDNAKNTVYLQMKSLKPEDTAVYYCNARARARYFYEMDYWGQGTQVTVSS | low polyreactivity
QVQLVESGRGIVQAGGSLRLSCAASGSIFWLYAMGWYRQAPGKERELVAAISWSGTSTNYADSVKGRFTISRDNAKNTVYFQMNSLKPEDTAVYYCAKRWYNQKLFGYEEEYDYWGQGTQVTVSS | low polyreactivity
QVQLVESGGGLVQAGGSLRLSCAASGSIFYRNAMGWYRQAPGKERELVATITVNGGRTYYADSVKGRFTISRDNANNTVYLQMNSLKPEDTAVYDCAKDVHRWDPYDYWGQGTQVTVSS | low polyreactivity
QVQLVESGGGLVHAGGSLRLSCAASGSTFQLNAMGWYRQAPGKERELVAAISTRGGSTYYADSLKGRFTISRDNAKNTVYLQMNSLKPEDTAVYYCAARLYTRRDYWGQATQVTVSS | high polyreactivity
QVQLVESAAGLVQAGGSLRVSCAASGSSFRLYAMGWYRPAPGKEREFVARIRWRGGSTNYADSVKGRFTISRDNAKNNVYLQMNSLKTEDTAVYYCAAKQGTVRAHTYVPWYDYWGQGTQVTVSS | high polyreactivity

Sequence | polyreactivity (PSR sort gate)
QVQLVESGGGLVQAGGSLRLSCAASGRIFARNAMGWYRQAPGKERELVAGITWSGSSTYYADSVKGRFTISRDNAKNTVYLQMNSLKPEDTAVYYCAVDYYVGSLRIDHDYWGQGTQVTVSS | low polyreactivity
QVQLVESGGGLVQAGGSLRLSCAASGSTLNRNVMGWYRQAPGKEREFVAVITYGVGSTYYADSVKGRFTISRDNAKNTVYLQMNSLKPEDTAVYYCNKDPLVFDYWGQGTQVTVSS | low polyreactivity
QVQLVESGGGLVQAGGSLRLSCAASGRTFYGYTMGWYRQAPGKERELVAAISWTGGRTYYADSVKGRFTISRDNAKNTVYLQMNSLKPEDTAVYYCAARRYQSEDVPYGYWGQGTQVTVSS | high polyreactivity
QVQLVESGGGLVQAGGSLRLSCAASGFTFAVYVMGWYRQAPGKERELVATISFSVGSTYYADSVKGRFTISRDNAKNTVYLQMNSLKPEDTAVYYCNADPPPEYYPDKDNYWGQGTQVTVSS | low polyreactivity
QVQLVESGGGLVQAGGSLRLSWAASGGTFVPYAMGWYRQAPGTERELVARISKRGGTTYYADSVKGRFTISRDNAKYTVYLQMNSLKPEDTAVYYCAAVLPARGYYWGQGTQVTVSS | high polyreactivity
QVQLVESGGGLVQAGGSLRLSCAASGRTFRANAMEWYRQAPGKEREFVAVISLSGGGTYADSVKGRFTISRDNAKNTVYLQMNSLKPEDTAVYYCNRVPRRREYFHSNYLALFDYWGQGTQVTVSW | low polyreactivity
QVQLVESGGGLVQAGGSLRLSCAASGFTFYHNALGWYRQAPGKERELVATITARGGRTYYADSVKGRFTISRDNAKNTVYLQMNSLKPEDTAVYYCNVKASRGYTYEYDYWGQGTQVTVSS | high polyreactivity
QVQLVESGGGLVQAGGSLRLSCAASGRIFNYYAMGWYRQAPGKERELVAGISGSGTSTYYADSVKGRFTISRDNAKNTVYLQMNSLKPEDTAVYYCAADVFRDDVWLDYWGQGTQVTVSS | low polyreactivity
QVQLVESGGGLVQAGGSLRLTCAASGLTFPSYSMGWYRQAPGKERELVAAIYYSGGSTYYADSVKGRFTISRDNAKITVYIHMNSLKPEDTAVYYCAADFTSFFNRIDYWGQGTQVTVSS | low polyreactivity
QVQLVESGGGLVQAGGSLRLSCAASGNIFRRYAMGWYRQAPGKDRELVAAISISGGNTYYADSVKGRFTISRDNAKNTVYLQMNSLKREDTAVYYCNARLRWYPGYDYWGQGTQVTVSS | high polyreactivity
QVQLVESGGGLVQAGGSLRLSCAASGSTFNGYAMGWYRQAPGKERELVADISRGDRTNYADSVKGRFTISRDNAKNTVYLQMKSLKREDTAVYYCAKDWLTDDPDKDPSVEYDYWGQGTQVTVSS | low polyreactivity
QVQLVDSGGGLVQAGGSLRLSCAASGRISNYYAMGWYRQAPGKERELVAAITRSGGSTYYADSVKGRFTISRDNAKNTVYLQMNSLKPEDTAVYYCATDWTVRYDYWGQGTQVTVSS | high polyreactivity
QVQLVESGGGLVQAGGSLRLSCAASGSTFGLYAMGWYRQAPGKERELVAAITRGGVTDFADCVKGRFTFSRDNAKYTVYLQMNSLKPEDTAVYYCAAQYKRYHGLFGFWGQGTQVTVSS | high polyreactivity
QVQLVESGGGLVQAGGSLRLSCAASGLILGYYAMGWYRQAPGKERELVAAITSSGTTTYYADSVKGRFTISRDNAKNTVYLQMNSLKPEDTAVYYWAALYIGKKRFNYWGQGTQVNVSS | high polyreactivity
QVQLVESGGGLVQAGGSLRLSCAASGFTFDSNGMGWYRQAPGKERELVAAISTGGSTYYADSVKGRFTISRDNAKTTVYIPMNSLKPEDTPVYYCARDTPYPDTWYGYWGQGTQVTVSS | low polyreactivity
QVQLVESGGGLVQAGGSLRLSCAASGSIFNINAMGWCRQAPGKDRELVATITSGGTTSYADSVKGRFTISRDNAKNTVYLQMNSLKPEDTAVYYCNAEIYPIVKAGRQHPRRYDYWGQGTQVTVSS | low polyreactivity
QVQLVESGGGLVQAGGSLRLSCAASGSIFNSNAMGWYRQAPGKERELVATIRWSGGSTNYADSVKGRFTISRDNAKNTVYLQMNSLKPEDTAVYYCAVLPRGSNGMDYWGQGTQVTVSS | low polyreactivity
QVQLVESGGGLVQAGGSLRLSCAASGSTYYYYAMGWYRQAPGKERELVASIRSGGNTNYADSVKGRFTISRDNAKNTVYLQMKSLIPEDTAVYYCASRYMGSYSGGNYWGQVTQVTVSS | low polyreactivity
QVQLVESGGGLVQAGCSLRLSCAASGRTFYYNAMGWYRQAPGKERELVAAITRSGSSTYYADSVKGRFTISRDNAKNTVYLQMNSLKPEDTAVYYCAARVGDAYYYWGQGTQVTVSS | high polyreactivity
QVQLVESGGGLVQAGGSLRLSCAASGSTIGWNAMGWYRQAPRKERELVAAISSSGGITYYADSVKGRYTISRDTAKNTVYLQMNSLKPDDTAVYDCAAEGDDDWVNYWGHGTQVTVSS | low polyreactivity
QVQLVESGGGFVQAGGSLRLSCAASGRTFNGYAMGWYTQAPGKERELVAGISWRGTSTYYSDSVKGRFTISRDNAKNTVYLQLNSLKPEDTAVYYCAASRYLLYDYWGQGTQVTVSS | high polyreactivity
